The record followed here is patent US5683903.

This experiment addresses macrophage scavenger receptors on transfected 293 cells (human macrophage scavenger receptor type I or type II; the filing does not say which). The experiment is described as follows: radioligand binding/uptake on transfected HEK 293 cells; about 5 µg/ml, 5 hours at 37° C.

The substance [125I]-acetylated LDL registered a binding/uptake (µg/mg protein) of 1.75.
